Assay results from publication PMC9482650, “Quantitative fragmentomics allow affinity mapping of interactomes” (Nature Communications, 2022).

Experiments:
Assay in all cases: holdup assay
Design in all cases: key: below the threshold = too weak to quantify, mostly under pKd 3.1 to 4
LIMK1, P53667 = target: LIMK1, P53667
MAGI2_1, Q86UL8 = target: T1, MAGI2_1, Q86UL8
T1 sequence (Q86UL8 12-111, limits assumed, looked up): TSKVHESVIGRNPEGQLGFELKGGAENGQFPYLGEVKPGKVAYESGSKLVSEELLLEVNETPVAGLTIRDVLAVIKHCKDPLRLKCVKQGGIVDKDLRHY

PDZD9, Q8IXQ8 = target: PDZD9, Q8IXQ8
Chain of PDZD9, Q8IXQ8 (Q8IXQ8 23-120): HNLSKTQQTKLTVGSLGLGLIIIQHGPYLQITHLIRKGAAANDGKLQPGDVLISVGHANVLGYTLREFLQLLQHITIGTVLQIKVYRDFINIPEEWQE

APBA3_2, O96018 = target: T2, APBA3_2, O96018
T2 sequence (O96018 480-570, limits assumed, looked up): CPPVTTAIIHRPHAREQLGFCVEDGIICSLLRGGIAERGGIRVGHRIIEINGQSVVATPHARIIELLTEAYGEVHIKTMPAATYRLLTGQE

MPDZ_2, O75970 = target: T3, MPDZ_2, O75970
T3 sequence (O75970 252-347, limits assumed, looked up): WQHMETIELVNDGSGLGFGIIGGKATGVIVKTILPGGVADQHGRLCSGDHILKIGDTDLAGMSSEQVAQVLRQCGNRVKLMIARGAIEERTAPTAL

INTU, Q9ULD6 = target: T4, INTU, Q9ULD6
T4 sequence (Q9ULD6 180-273, limits assumed, looked up): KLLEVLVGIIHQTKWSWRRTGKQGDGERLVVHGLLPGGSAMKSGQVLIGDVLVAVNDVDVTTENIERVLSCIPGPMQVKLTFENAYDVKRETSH

DVL1, O14640 = target: T5, DVL1, O14640
T5 sequence (O14640 246-333, limits assumed, looked up): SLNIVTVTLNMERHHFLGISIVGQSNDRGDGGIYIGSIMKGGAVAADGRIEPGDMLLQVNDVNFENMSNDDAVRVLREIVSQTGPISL

PDZD4, Q76G19 = target: T6, PDZD4, Q76G19
T6 sequence (Q76G19 125-224, limits assumed, looked up): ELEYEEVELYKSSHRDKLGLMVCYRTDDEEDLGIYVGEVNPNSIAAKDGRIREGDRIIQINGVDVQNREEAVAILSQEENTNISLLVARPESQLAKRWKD

PDZD2_6, O15018 = target: T7, PDZD2_6, O15018
T7 sequence (O15018 2745-2839, limits assumed, looked up): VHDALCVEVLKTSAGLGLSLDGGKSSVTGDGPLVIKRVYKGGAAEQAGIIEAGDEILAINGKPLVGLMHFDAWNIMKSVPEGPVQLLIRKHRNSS

AHNAK2, Q8IVF2 = target: AHNAK2, Q8IVF2
Chain of AHNAK2, Q8IVF2 (Q8IVF2 108-193): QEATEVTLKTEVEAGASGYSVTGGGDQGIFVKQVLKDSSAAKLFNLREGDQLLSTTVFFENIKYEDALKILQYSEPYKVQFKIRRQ

PARD6G, Q9BYG4 = target: T8, PARD6G, Q9BYG4
T8 sequence (Q9BYG4 153-261, limits assumed, looked up): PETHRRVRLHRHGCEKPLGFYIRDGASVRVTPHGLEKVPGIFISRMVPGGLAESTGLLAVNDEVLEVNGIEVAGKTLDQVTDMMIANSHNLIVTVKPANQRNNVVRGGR

PDZD11, Q5EBL8 = target: T9, PDZD11, Q5EBL8
T9 sequence (Q5EBL8 42-139, limits assumed, looked up): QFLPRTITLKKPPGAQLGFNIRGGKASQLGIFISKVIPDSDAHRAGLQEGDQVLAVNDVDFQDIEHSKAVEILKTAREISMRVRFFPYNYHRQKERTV

NHERF1_1, O14745 = target: T10, NHERF1_1, O14745
T10 sequence (O14745 9-104, limits assumed, looked up): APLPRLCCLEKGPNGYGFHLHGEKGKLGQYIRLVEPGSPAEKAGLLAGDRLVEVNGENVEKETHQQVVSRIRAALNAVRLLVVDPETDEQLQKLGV

SYNPO2L, Q9H987 = target: T11, SYNPO2L, Q9H987
T11 sequence (Q9H987 1-98, limits assumed, looked up): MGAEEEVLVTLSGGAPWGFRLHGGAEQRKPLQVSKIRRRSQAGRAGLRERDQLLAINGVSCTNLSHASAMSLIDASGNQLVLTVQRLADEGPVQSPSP

PDZD7_2, Q9H5P4 = target: T12, PDZD7_2, Q9H5P4
T12 sequence (Q9H5P4 205-303, limits assumed, looked up): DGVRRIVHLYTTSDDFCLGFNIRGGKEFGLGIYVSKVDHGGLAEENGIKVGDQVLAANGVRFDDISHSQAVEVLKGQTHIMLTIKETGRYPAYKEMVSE

SHANK2, Q9UPX8 = target: T13, SHANK2, Q9UPX8
T13 sequence (Q9UPX8 621-730, limits assumed, looked up): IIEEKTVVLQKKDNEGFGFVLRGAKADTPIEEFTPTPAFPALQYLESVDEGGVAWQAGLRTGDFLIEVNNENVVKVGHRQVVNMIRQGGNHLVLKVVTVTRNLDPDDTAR

O00560 = conditions: plain residues with an end cap or a label only (N-terminal biotin on a linker: ttds)
O75970 = conditions: plain residues with an end cap or a label only (N-terminal biotin on a linker: ttds)
O60759 = conditions: plain residues with an end cap or a label only (N-terminal biotin on a linker: ttds)
Q8IUC4 = conditions: plain residues with an end cap or a label only (N-terminal biotin on a linker: ttds)
Q9C0E4 = conditions: plain residues with an end cap or a label only (N-terminal biotin on a linker: ttds)
Q8TEW0 = conditions: plain residues with an end cap or a label only (N-terminal biotin on a linker: ttds)
Q9ULJ8 = conditions: plain residues with an end cap or a label only (N-terminal biotin on a linker: ttds)
Q6ZWJ1 = conditions: plain residues with an end cap or a label only (N-terminal biotin on a linker: ttds)
Q9P227 = conditions: plain residues with an end cap or a label only (N-terminal biotin on a linker: ttds)
[1] = plain residues with an end cap or a label only (N-terminal biotin on a linker: ttds)
[2] = plain residues with an end cap or a label only (N-terminal biotin on a linker: none)

Chain of LIMK1, P53667 (P53667 155-268): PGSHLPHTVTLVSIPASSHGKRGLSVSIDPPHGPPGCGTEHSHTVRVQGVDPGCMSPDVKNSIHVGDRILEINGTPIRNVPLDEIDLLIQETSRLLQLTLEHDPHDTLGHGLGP

Binder | pKd (LIMK1, P53667; [1]) | pKd (MAGI2_1, Q86UL8; [1]) | pKd (PDZD9, Q8IXQ8; [1]) | pKd (APBA3_2, O96018; [1]) | pKd (MPDZ_2, O75970; [1]) | pKd (INTU, Q9ULD6; [1]) | pKd (DVL1, O14640; [1]) | pKd (PDZD4, Q76G19; [1]) | pKd (PDZD2_6, O15018; [1]) | pKd (AHNAK2, Q8IVF2; [1]) | pKd (PARD6G, Q9BYG4; [1]) | pKd (PDZD11, Q5EBL8; [1]) | pKd (NHERF1_1, O14745; [1]) | pKd (SYNPO2L, Q9H987; [1]) | pKd (PDZD7_2, Q9H5P4; [1]) | pKd (SHANK2, Q9UPX8; [1]) | also measured
RRVRKLPSTTL [RPS6KA1, Q15418] | below the threshold | below the threshold | below the threshold | below the threshold | below the threshold | below the threshold | below the threshold | below the threshold | below the threshold | below the threshold | below the threshold | below the threshold | below the threshold | below the threshold | below the threshold |  | 
DEDQHTQITKV [PTEN, P60484] | below the threshold | below the threshold |  | below the threshold | below the threshold | below the threshold | below the threshold | below the threshold | 3.56 | below the threshold | below the threshold | below the threshold | 4.46 | below the threshold | below the threshold | below the threshold | 
SEKHFRETEV [HTLV1-TAX1, P03409] |  | below the threshold | below the threshold | below the threshold | below the threshold | 3.8 | below the threshold | below the threshold | below the threshold | below the threshold | 3.93 | below the threshold | below the threshold | below the threshold | 4.05 | below the threshold | 
IQREDQETAV [DGKZ, Q13574] |  | below the threshold | below the threshold | 4.74 | below the threshold |  | below the threshold | below the threshold | below the threshold | below the threshold | below the threshold | below the threshold | below the threshold | below the threshold | below the threshold | below the threshold | pKd (O00560): below the threshold; pKd (O75970): below the threshold; pKd (O60759): below the threshold; pKd (Q8IUC4): below the threshold; pKd (Q9C0E4): below the threshold; pKd (Q8TEW0): below the threshold; pKd (Q9ULJ8): below the threshold; pKd (Q6ZWJ1): below the threshold; pKd (Q9P227): below the threshold
TGDTLEKFVEGL [CBP, Q92793] | below the threshold | below the threshold |  | 3.95 | below the threshold | below the threshold | below the threshold | below the threshold | 3.86 | below the threshold | 3.82 | below the threshold | 4.09 | below the threshold | below the threshold | below the threshold | 
DSKPPLPPDEWV [MERS-E, K9N5R3] |  |  |  |  |  |  |  |  |  |  |  |  |  |  |  |  | pKd (SHANK2, Q9UPX8; [2]): below the threshold; pKd (LIMK1, P53667; [2]): below the threshold; pKd (MAGI2_1, Q86UL8; [2]): below the threshold; pKd (PDZD9, Q8IXQ8; [2]): below the threshold; pKd (APBA3_2, O96018; [2]): below the threshold; pKd (MPDZ_2, O75970; [2]): below the threshold; pKd (INTU, Q9ULD6; [2]): below the threshold; pKd (DVL1, O14640; [2]): below the threshold; pKd (PDZD4, Q76G19; [2]): below the threshold; pKd (PDZD2_6, O15018; [2]): below the threshold; pKd (AHNAK2, Q8IVF2; [2]): below the threshold; pKd (PARD6G, Q9BYG4; [2]): below the threshold; pKd (PDZD11, Q5EBL8; [2]): below the threshold; pKd (NHERF1_1, O14745; [2]): below the threshold; pKd (SYNPO2L, Q9H987; [2]): 4.16; pKd (PDZD7_2, Q9H5P4; [2]): below the threshold
HRTCYLVTQL [ASIC3, Q9UHC3] |  | 4.01 | below the threshold | below the threshold | below the threshold |  | below the threshold | below the threshold | below the threshold | below the threshold | below the threshold | below the threshold | 5.23 | below the threshold | below the threshold | 4.93 | pKd (O00560): below the threshold; pKd (O75970): below the threshold; pKd (O60759): below the threshold; pKd (Q8IUC4): below the threshold; pKd (Q9C0E4): below the threshold; pKd (Q8TEW0): below the threshold; pKd (Q9ULJ8): below the threshold; pKd (Q6ZWJ1): below the threshold; pKd (Q9P227): below the threshold
